According to patent publication US20250361305A1 (ORIONIS BIOSCIENCES, published 2025):

What was measured:
[1] = biological target: T1, PD-1 antigen (ELISA of Example 2) (human, UniProt Q15116 25-167, limits assumed); assay: ELISA, signal on PD-1 antigen; also: test concentration or dose not given here
[2] = biological target: T1, PD-1 antigen (ELISA of Example 2); assay: ELISA, signal on PD-1 antigen over control
[3] = biological target: T2, human PD-L1-Fc (SinoBiological) (human, UniProt Q9NZQ7 19-239); assay: BLI (Octet RED96), VHH on Penta-HIS sensor, human PD-L1-Fc in solution
T2 construct: Bought; not shown: Fc of a bought fusion protein
T2 sequence (Q9NZQ7 19-239 limits assumed): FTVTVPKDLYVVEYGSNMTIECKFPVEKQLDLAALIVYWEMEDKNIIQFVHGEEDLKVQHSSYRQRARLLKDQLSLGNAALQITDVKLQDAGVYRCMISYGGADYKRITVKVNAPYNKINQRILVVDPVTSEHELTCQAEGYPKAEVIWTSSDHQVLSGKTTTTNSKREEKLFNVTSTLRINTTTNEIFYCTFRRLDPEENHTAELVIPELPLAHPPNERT

[4] = biological target: T3, cynomolgus PD-L1-Fc (SinoBiological) (cynomolgus, UniProt G7PSE7 19-238); assay: BLI (Octet RED96), VHH on Penta-HIS sensor, cynomolgus PD-L1-Fc in solution
T3 construct: Bought; also called Cyno PD-L1; not shown: Fc carrier (and any linker) of the bought SinoBiological fusion
T3 sequence (G7PSE7 entry or part of it limits assumed): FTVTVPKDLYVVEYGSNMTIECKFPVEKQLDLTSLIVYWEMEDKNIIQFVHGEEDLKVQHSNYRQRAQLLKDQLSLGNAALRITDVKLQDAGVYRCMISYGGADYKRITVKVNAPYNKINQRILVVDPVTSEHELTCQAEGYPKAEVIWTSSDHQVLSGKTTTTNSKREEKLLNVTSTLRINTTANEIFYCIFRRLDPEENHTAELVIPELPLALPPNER

[5] = biological target: T4, recombinant extracellular domain of PD-L1 with C-terminal FLAG-tag (human, UniProt Q9NZQ7 19-238); assay: plate binding assay, VHH against hPD-1-hFc binding to immobilised PD-L1 ECD-FLAG
T4 construct: extracellular domain; The sentence itself names no species; Immobilised through the M2 anti-FLAG antibody; not shown: C-terminal FLAG-tag
T4 sequence (Q9NZQ7 19-238): as the sequence (G7PSE7 entry or part of it limits assumed) above, with T33A, S34A, N62S, Q68R, R82Q, L173F, A185T, I192T, L215H counted along it

T1 sequence (Q15116 25-167 limits assumed): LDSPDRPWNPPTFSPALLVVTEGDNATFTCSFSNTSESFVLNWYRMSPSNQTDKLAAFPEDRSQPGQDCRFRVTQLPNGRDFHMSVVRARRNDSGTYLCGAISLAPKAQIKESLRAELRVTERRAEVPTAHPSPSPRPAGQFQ

Binder	ELISA A [1]	A/control [2]	Kd [3]	koff [3]	kon [3]	Kd [4]	koff [4]	kon [4]	IC50 [5]
2PD23 (VHH, PD-1 VHH) VHH: QVQLQESGGGLVQPGGSLRLSCAASGFSMDYYAIAWFRQAPGKEREEISCITGSDFMVDTYYVASVKGRFTISRDNAENTAYLQMNNLKPEDTGVYFCAVRSTANTLCPSHYSVMDYWGKGTQVTVSS	0.94	4.56							
2PD26 (VHH, PD-1 VHH) VHH: QVQLQESGGGLVQAGGSLRLSCAASGFSMDYYAIAWFRQAPGKEREEISCITGSDFMVDTYYVASVKGRFTISRDNAENTAYLQMNNLKPEDTGVYFCAVRSTANTLCPSHYSVMDYWGKGTQVTVSS	0.718	4.2							
2LIG27 VHH-(His)6 (pHEN6C-PelB-PD-L1 VHH-(His)6) (VHH) VHH: QVQLQESGGGVVQAGGSLRLSCTASGTIFSINRMDWFRQAPGKQRELVALITSDGTPTYADSAKGRFTISRDNTKKTVSLQMNSLKPEDTAVYYCHVSSGVYNYWGQGTQVTVSS			7.51 nM	0.0035 s⁻¹	472000 M⁻¹ s⁻¹	8.74 nM	0.0028 s⁻¹	321000 M⁻¹ s⁻¹	9.57 ng/mL
2LIG3 VHH-(His)6 (pHEN6C-PelB-PD-L1 VHH-(His)6) (VHH) VHH: QVQLQESGGGLVQAGGSLRLSCTASGTIFSINHMDWFRQAPGKQRELVALITSDGFPTYADSAKGRFTISRDNTKKTVSLQMNSLKPEDTAVYYCHVSSGVYNYWGQGTQVTVSS			1.19 nM	0.000448 s⁻¹	373000 M⁻¹ s⁻¹	0.89 nM	0.000318 s⁻¹	358000 M⁻¹ s⁻¹	18.9 ng/mL
2LIG97 VHH-(His)6 (pHEN6C-PelB-PD-L1 VHH-(His)6) (VHH) VHH: QVQLQESGGGLVQAGESLRLSCTASGTIFSINRMDWFRQAPGKQRELVALITSDGTPTYADSAKGRFTISRDNTKKTVSLQMNSLKPEDTAVYYCHVSSGVYNYWGQGTQVTVSS			4.35 nM	0.00198 s⁻¹	423000 M⁻¹ s⁻¹	9.16 nM	0.00293 s⁻¹	319000 M⁻¹ s⁻¹	4.81 ng/mL
2LIG99 VHH-(His)6 (pHEN6C-PelB-PD-L1 VHH-(His)6) (VHH) VHH: QVQLQESGGGLVQAGGSLRLSCTASGTIFSINRMDWFRQAPGKQRELVALITSDGTPAYADSAKGRFTISRDNTKKTVSLQMNSLKPEDTAVYYCHVSSGVYNYWGQGTQVTVSS			0.875 nM	0.000634 s⁻¹	729000 M⁻¹ s⁻¹	1.01 nM	0.000585 s⁻¹	584000 M⁻¹ s⁻¹	6.21 ng/mL
2LIG189 VHH-(His)6 (pHEN6C-PelB-PD-L1 VHH-(His)6) (VHH) VHH: QVQLQESGGGLVQAGGSLRLSCAASGKIFSGNDMGWYRQAPGKQRELVGIITSGGITDYADAVKGRFTISRDNAKNMMYLQMNSLKPEDTAVYYCNMRDRTIWWGQGTQVTVSS			3.03 nM	0.000524 s⁻¹	174000 M⁻¹ s⁻¹	3.8 nM	0.000437 s⁻¹	114000 M⁻¹ s⁻¹	8.81 ng/mL
2LIG176 VHH-(His)6 (pHEN6C-PelB-PD-L1 VHH-(His)6) (VHH) VHH: QVQLQESGGGLVQAGGSLRLSCAASESIFSIEAMGWYRQAPGKQRELVAAIFGGGFTNYADSVKGRFTISRDNANRTVYLQMNSLKPEDTAVYYCNADLVSGSSRLYDYWGQGTQVTVSS			6.87 nM	0.00805 s⁻¹	1.18e+06 M⁻¹ s⁻¹	11.3 nM	0.00573 s⁻¹	508000 M⁻¹ s⁻¹	5.68 ng/mL
2PD-16 (VHH, PD-1 VHH) VHH: QVQLQESGGGLVQAGGSLRLSCAASGGFNRVSYMGWYRQAPGTKRELVASVTSGGEITIADSVKGRFTVSRDNSKNTLYLQMNGLKPEDGATYWCNADIWVSDARMYNYWGQGTQVTVSS	1.83	3.84							
2PD71 (VHH, PD-1 VHH) VHH: QVQLQESGGGLVQTGESLRLSCAASGGFNRVSYMGWYRQAPGSKRELVASVTSGGEITVADSVKGRFTVSRDNNKNTLYLQMNGLKPEDGATYWCNADIWVSDARMYNYWGQGTQVTVSS	2.51	3.59							
2PD-12 (VHH, PD-1 VHH) VHH: QVQLQESGGGLVQAGGSLRLSCAVSGFILDYYGIGWFRQAPGKEREAVSCISSSDGSTYYADSVKGRFTISRDNALNTLYLQMNSLKPEDTAVYHCATATLCDGGIWGYWGQGTQVTVSS	3.81	21.5							
2PD8 (VHH, PD-1 VHH) VHH: QVQLQESGGGSVQAGDSLRLSCTASGRTFSSLGMGWFRQAPGKEREFVSAIAWNGASTYYTESVKGRFTISRDDAKNTVYLQMNSLKPTDTAVYFCAASGLGSVVVTANEYDYWGQGTQVTVSS	0.763	3.03							
2PD27 (VHH, PD-1 VHH) VHH: QVQLQESGGGSVQPGKSLRLSCAASGRTFSSLGMGWFRQAPGKEREFVSAIAWNGASTYYTESVKGRFTISRDDAKNTVYLQMNSLKPTDTAVYFCAASGLGSVVVTANEYDYWGQGTQVTVSS	1.14	3.45							
2PD82 (VHH, PD-1 VHH) VHH: QVQLQESGGGLVQPGGSLRLSCTTSGFAFGSYDMGWVRQAPGKGPEWVSGINSGGRITDYADSVTGRFTISRDNAKNTLYLQMNSLKPEDTAVYYCAQGDRSSWHYYGMDYWGKGTQVTVSS	2.97	4.38							

Now from value to binder:

ELISA A [1]	A/control [2]	Kd [3]	koff [3]	kon [3]	Kd [4]	koff [4]	kon [4]	IC50 [5]	Binder
1.34	5.23								2PD90 (VHH, PD-1 VHH) VHH: QVQLQESGGGLVQPGGSLRLSCSASGFSVDYYAIAWFRQAPGKEREEISCITGSDFMVDTYYVASVKGRFTISRDNAKNTAYLQMNSLKPEDTGVYFCAVRSTANTLCPSHYSIMDYWGKGTQVTVSS
1.46	6.9								2PD-106 (VHH, PD-1 VHH) VHH: QVQLQESGGGLVQPGGSLRLSCSASGFSMDYYAIAWFRQAPGKEREEISCITGSDFMVDTYYVASVKGRFTISRDNAKNTAHLQMNSLKPEDTGVYFCAVRSTANTLCPSHYSVMDYWGKGTQVTVSS
		8.77 nM	0.00419 s⁻¹	484000 M⁻¹ s⁻¹	5.98 nM	0.00305 s⁻¹	812000 M⁻¹ s⁻¹	12.8 ng/mL	3LIG8 VHH-(His)6 (pHEN6C-PelB-PD-L1 VHH-(His)6) (VHH) VHH: QVQLQESGGGLVQPGGSLRLSCTASGTIFSINRMDWFRQAPGKQRELVALITSDGTPTYADSAKGRFTISRDNTKKTVSLQMNSLKPEDTAVYYCHVSSGVYNYWGQGTQVTVSS
2.31	6.38								2PD-152 (VHH, PD-1 VHH) VHH: QVQLQESGGGLVQTGESLRLSCAASGIIKSINFMGWYRQPPGTKRELVASTTSDGRTTVADSVKGRFTISRDNAKNTIYLEMSSLKPEDTATYWCNADIWLPSDRMYNYWGQGTQVTVSS
3.58	40.4								3PD55 (VHH, PD-1 VHH) VHH: QVQLQESGGGLAQAGGSLRLSCEGSGLSLDYDGVGWFRQAPGKEREAVSCISSSDGSTYYADSVKGRFTISRGNALNTLYLQMNSLKPEDTAVYYCATATLCDGGIWGYWGQGTQVTVSS
4	45.1								3PD82 (VHH, PD-1 VHH) VHH: QVQLQESGGGSVQPGGSLRLSCAVSGFILDYYGIGWFRQAPGKEREAVSCISSSDGSTYYADSVKGRFTISRDNALNTLYLQMNSLKPEDTAVYYCATATLCDGGIWGYWGQGTQVTVSS
